Measurements from the supplement of paper PMC9112550, “Optimization of the antimicrobial peptide Bac7 by deep mutational scanning” (BMC Biology, 2022).

System: Escherichia coli TOP10
Assay: shrunken log2 fold change of peptide-encoding DNA abundance (4.5 h post-induction vs induction); higher = less antimicrobial activity (less host growth inhibition)
Conditions: time post-induction: 4.5 h; library: site-saturation at positions 5, 18, 19, 20
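Also: peptides expressed intracellularly from a pBAD plasmid library in pooled LB shake-flask culture, induced with 0.3% L-arabinose, DNA abundance read by NGS, three biological replicates, DESeq2 with apeglm shrinkage.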

Sequence | shrunken log2 fold change
RRIRQRPPRLPRPRPRPCWGPRP | 0.0281
RRIRHRPPRLPRPRPRPKGTPRP | -0.0951
RRIRSRPPRLPRPRPRPCDSPRP | -0.207
RRIRQRPPRLPRPRPRPVFDPRP | -0.446
RRIRDRPPRLPRPRPRPPMAPRP | -0.0543
RRIRPRPPRLPRPRPRPLVKPRP | -0.0409
RRIRSRPPRLPRPRPRPCEKPRP | -0.475
RRIRNRPPRLPRPRPRPMMYPRP | 0.025
RRIRMRPPRLPRPRPRPRWIPRP | 0.00451
RRIRMRPPRLPRPRPRPYNEPRP | -0.811
RRIRARPPRLPRPRPRPTEEPRP | -0.082
RRIRRRPPRLPRPRPRPYQPPRP | -0.00931
RRIRHRPPRLPRPRPRPMSQPRP | -0.151
RRIRKRPPRLPRPRPRPWIVPRP | -0.056
RRIRDRPPRLPRPRPRPAQEPRP | 0.185
RRIRQRPPRLPRPRPRPQNMPRP | -0.506
RRIRSRPPRLPRPRPRPAWAPRP | 0.333
RRIRNRPPRLPRPRPRPKKNPRP | -0.0707
RRIRTRPPRLPRPRPRPHTEPRP | -0.215
RRIRMRPPRLPRPRPRPSGLPRP | 0.0901
RRIRGRPPRLPRPRPRPRMNPRP | 0.572
RRIRARPPRLPRPRPRPSQGPRP | -0.168
RRIRARPPRLPRPRPRPWADPRP | 0.0394
RRIRRRPPRLPRPRPRPMVPPRP | 0.135
RRIRYRPPRLPRPRPRPLRIPRP | -0.36

Sequence | shrunken log2 fold change
RRIRSRPPRLPRPRPRPAIVPRP | 0.385
RRIRLRPPRLPRPRPRPGPQPRP | 0.228
RRIRIRPPRLPRPRPRPNEHPRP | -0.459
RRIRCRPPRLPRPRPRPLRYPRP | 0.246
RRIRPRPPRLPRPRPRPLHEPRP | 0.236
RRIRHRPPRLPRPRPRPNGKPRP | -0.335
RRIRHRPPRLPRPRPRPQHRPRP | -0.355
RRIRRRPPRLPRPRPRPRFPPRP | 0.676
RRIRSRPPRLPRPRPRPMYMPRP | -0.387
RRIRIRPPRLPRPRPRPCCYPRP | -0.495
RRIRGRPPRLPRPRPRPWCQPRP | 0.224
RRIRRRPPRLPRPRPRPFTPPRP | -0.0158
RRIRGRPPRLPRPRPRPQKCPRP | 0.122
RRIRNRPPRLPRPRPRPMAQPRP | 0.0103
RRIRIRPPRLPRPRPRPFSGPRP | -0.241
RRIRYRPPRLPRPRPRPMNQPRP | -0.383
RRIRPRPPRLPRPRPRPRCQPRP | 0.273
RRIRNRPPRLPRPRPRPKDRPRP | -0.0176
RRIRNRPPRLPRPRPRPYQPPRP | -0.31
RRIRFRPPRLPRPRPRPYPIPRP | -0.281
RRIRWRPPRLPRPRPRPNRCPRP | 0.0312
RRIRERPPRLPRPRPRPDLAPRP | 0.27
RRIRKRPPRLPRPRPRPIAQPRP | 0.208
RRIRGRPPRLPRPRPRPGFAPRP | 0.831
RRIRMRPPRLPRPRPRPDEIPRP | 2.86

Sequence | shrunken log2 fold change
RRIRDRPPRLPRPRPRPLMAPRP | 1.09
RRIRMRPPRLPRPRPRPRNHPRP | 0.263
RRIRERPPRLPRPRPRPGHNPRP | -0.115
RRIRPRPPRLPRPRPRPPPHPRP | 0.657
RRIRCRPPRLPRPRPRPEMCPRP | 0.0156
RRIRRRPPRLPRPRPRPWVLPRP | 0.0819
RRIRPRPPRLPRPRPRPCDEPRP | 0.0442
RRIRPRPPRLPRPRPRPFIGPRP | 0.108
RRIRWRPPRLPRPRPRPTVHPRP | -0.189
RRIRKRPPRLPRPRPRPEDAPRP | 0.054
RRIRARPPRLPRPRPRPVLEPRP | 0.488
RRIRHRPPRLPRPRPRPLTSPRP | -0.246
RRIRFRPPRLPRPRPRPARWPRP | 0.577
RRIRTRPPRLPRPRPRPPPLPRP | 0.352
RRIRIRPPRLPRPRPRPLCSPRP | -0.682
RRIRRRPPRLPRPRPRPISPPRP | -0.00237
RRIRVRPPRLPRPRPRPGCGPRP | 0.679
RRIRSRPPRLPRPRPRPQPCPRP | 2.29
RRIRRRPPRLPRPRPRPWRIPRP | 0.0818
RRIRTRPPRLPRPRPRPYNQPRP | -0.33
RRIRDRPPRLPRPRPRPMQIPRP | 0.0565
RRIRCRPPRLPRPRPRPCFEPRP | -0.00928
RRIRRRPPRLPRPRPRPQNAPRP | 0.0513
RRIRLRPPRLPRPRPRPSLSPRP | -0.305
RRIRFRPPRLPRPRPRPKACPRP | -0.174

Sequence | shrunken log2 fold change
RRIRHRPPRLPRPRPRPYIAPRP | -0.496
RRIRDRPPRLPRPRPRPCQIPRP | 0.0759
RRIRKRPPRLPRPRPRPWTEPRP | -0.172
RRIRWRPPRLPRPRPRPYQQPRP | -0.0018
RRIRWRPPRLPRPRPRPQLNPRP | 0.679
RRIRTRPPRLPRPRPRPWTCPRP | -0.0449
RRIRSRPPRLPRPRPRPIIMPRP | -0.35
RRIRMRPPRLPRPRPRPCLKPRP | 0.12
RRIRARPPRLPRPRPRPPDVPRP | 0.655
RRIRTRPPRLPRPRPRPCMPPRP | -0.143
RRIRVRPPRLPRPRPRPYCQPRP | -1.64
RRIRIRPPRLPRPRPRPTNEPRP | -0.4
RRIRVRPPRLPRPRPRPLSIPRP | -0.233
RRIRLRPPRLPRPRPRPLFKPRP | -0.188
RRIRTRPPRLPRPRPRPRHPPRP | 0.225
RRIRKRPPRLPRPRPRPGFYPRP | 0.00129
RRIRGRPPRLPRPRPRPDSEPRP | 0.321
RRIRWRPPRLPRPRPRPVYSPRP | -0.104
RRIRDRPPRLPRPRPRPFPEPRP | -0.144
RRIRNRPPRLPRPRPRPELCPRP | 0.232
RRIRPRPPRLPRPRPRPIPEPRP | 1.27
RRIRVRPPRLPRPRPRPYSYPRP | 0.128
RRIRRRPPRLPRPRPRPHDTPRP | -0.0817
RRIRPRPPRLPRPRPRPKNLPRP | -0.0674
RRIRHRPPRLPRPRPRPRGEPRP | -0.0677

Sequence | shrunken log2 fold change
RRIRMRPPRLPRPRPRPFYLPRP | -0.191
RRIRGRPPRLPRPRPRPRTCPRP | 0.592
RRIRQRPPRLPRPRPRPFIWPRP | -0.357
RRIRHRPPRLPRPRPRPVWRPRP | 0.0724
RRIRGRPPRLPRPRPRPSIPPRP | -0.137
RRIRCRPPRLPRPRPRPKQPPRP | 0.595
RRIRMRPPRLPRPRPRPGLQPRP | 4.5
RRIRTRPPRLPRPRPRPNPSPRP | -0.128
RRIRRRPPRLPRPRPRPSEHPRP | 0.453
RRIRLRPPRLPRPRPRPFVTPRP | -0.303
RRIRGRPPRLPRPRPRPILDPRP | 0.277
RRIRHRPPRLPRPRPRPKEQPRP | -0.00965
RRIRNRPPRLPRPRPRPQKVPRP | 0.007
RRIRTRPPRLPRPRPRPWWNPRP | -0.233
RRIRQRPPRLPRPRPRPQVTPRP | -0.00931
RRIRWRPPRLPRPRPRPQKEPRP | 0.0282
RRIRERPPRLPRPRPRPYQWPRP | 0.0039
RRIRFRPPRLPRPRPRPLDYPRP | -0.0121
RRIRFRPPRLPRPRPRPMRDPRP | 0.109
RRIRYRPPRLPRPRPRPLPMPRP | -0.624
RRIRRRPPRLPRPRPRPLTMPRP | 0.0632
RRIRTRPPRLPRPRPRPCMHPRP | -0.0639
RRIRTRPPRLPRPRPRPMREPRP | 0.864
RRIRARPPRLPRPRPRPDYGPRP | -0.679
RRIRHRPPRLPRPRPRPCPEPRP | 0.037

Sequence | shrunken log2 fold change
RRIRMRPPRLPRPRPRPEPGPRP | 2.73
RRIRQRPPRLPRPRPRPGEDPRP | -0.0999
RRIRHRPPRLPRPRPRPQPPPRP | 0.373
RRIRSRPPRLPRPRPRPHKCPRP | 0.00997
RRIRHRPPRLPRPRPRPEGFPRP | -0.078
RRIRCRPPRLPRPRPRPNFSPRP | -0.382
RRIRCRPPRLPRPRPRPNVIPRP | -0.374
RRIRKRPPRLPRPRPRPGSTPRP | 0.131
RRIRARPPRLPRPRPRPVEDPRP | 0.0532
RRIRSRPPRLPRPRPRPLDLPRP | -0.154
RRIRTRPPRLPRPRPRPMSPPRP | -0.152
RRIRGRPPRLPRPRPRPKPEPRP | 0.819
RRIRLRPPRLPRPRPRPIYIPRP | -1.1
RRIRRRPPRLPRPRPRPSTQPRP | -0.245
RRIRGRPPRLPRPRPRPGDEPRP | 1.81
RRIRMRPPRLPRPRPRPEFSPRP | 1.51
RRIRFRPPRLPRPRPRPNGTPRP | -0.419
RRIRVRPPRLPRPRPRPRQLPRP | 0.276
RRIRFRPPRLPRPRPRPPYIPRP | -0.282
RRIRWRPPRLPRPRPRPPTYPRP | -0.104
RRIRVRPPRLPRPRPRPDKSPRP | -0.0971
RRIRQRPPRLPRPRPRPWGHPRP | -0.0609
RRIRSRPPRLPRPRPRPNHHPRP | -0.566
RRIRMRPPRLPRPRPRPMGQPRP | 0.579
RRIRRRPPRLPRPRPRPANDPRP | 0.275
